Drawing on patent publication CN113045662A (SEEBIO BIOTECHNOLOGY SHANGHAI CO LTD, dated 2021), this text covers Ka for one molecule.

The test deals with T1, PD-L1-Ig-V (UniProt Q9NZQ7 19-134).
T1 construct: domain: Ig-V; also called PD-L1胞外域蛋白; not shown: His-Tag from the pET-28a vector
Put plainly: non-competitive checkerboard ELISA, mean of 6 K values. A general note: In an ELISA, binding on a coated surface is turned into a signal by an enzyme label.

T1 sequence (Q9NZQ7 19-134): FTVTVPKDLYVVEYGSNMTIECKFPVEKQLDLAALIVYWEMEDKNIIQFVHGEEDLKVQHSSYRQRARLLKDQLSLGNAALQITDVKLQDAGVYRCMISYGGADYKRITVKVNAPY

B1: PD-L1-Ig-V-VHH 6-21 (VHH)
VHH: DVQLQASGGGLVQAGGSLRLSCAASRMIFSTFSIQDMGWYRQAPGKQRDLVALITSDGSTNYADSVKGRFTISRDNAKSTVYLQMNNLKPEDTAVYYCAATDNVSGGRLLLNIWWMRDMWYNYWGQGTLVTVSS
notes: Nanobody from a synthetic phage display library (pCANTAB5E, M13K07 helper phage); also called 6-21号克隆
Consider B1, for which the Ka was roughly 1.93e+08 M⁻¹.
